For 27 substances, amyloid nucleation score results are on record in the supplement of paper PMC12042874.

± gives the uncertainty stated by the source.

A short description of the data set: amyloid nucleation score (Sup35N fusion, yeast selection) (log enrichment); library NNK1; higher = more nucleation; inactive = no reads after selection. In a few lines: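 Peptides of 20 random codons, each fused to Sup35N, were expressed in psi-negative yeast. Cells were induced with 100 μM copper sulfate for 24 hours and grown 7 days at 30°C on medium lacking adenine and uracil, and plasmid inserts before and after selection were Illumina-sequenced. Nucleation scores are DiMSum log enrichments of output over input reads, centred on the mode score of non-aggregating sequences, and sequences under 100 input reads were excluded.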
Take VGYSPVVFSLNNICGSPFLM: the amyloid nucleation score was 5.277 ± 0.047. In the case of VIHVSTYDSGVLPLKEDGTF, the amyloid nucleation score is 0.151 ± 0.4. The figure for YAALVHTHLKDYEISIYVIN is 0.988 ± 0.43. Turning to YVADGLKDKQRCSACFDASS, the amyloid nucleation score came out at 4.93 ± 0.063. Regarding SVPITLIGALGVKM, the amyloid nucleation score was 0.177 ± 0.57. The substance MYVNSSNYDLWMNFKIVFWA returned an amyloid nucleation score of 1.18 ± 0.25. The figure for ERAQYMSRTVRRVSFKSFFC is 3.55 ± 0.13. Substance ASFLRNVFWVIREYTLCEYV came in with an amyloid nucleation score of 0.647 ± 0.19. The figure for SNFINLGRWFRIDL is 0.377 ± 0.53; for IYRDGIGTDIWFRGSICKCL it is 0.704 ± 0.61; for SETQNRLS it is -0.024 ± 0.33. RYNCVDV showed an amyloid nucleation score of -0.765 ± 0.52.

In turn, LPNRCASIVRQIVQVWCVS registered an amyloid nucleation score of 2.41 ± 0.12. The figure for VPILFRLLVNTSPYNGPLGL is -0.042 ± 0.56; for SCVLRRNSHRIMDSYPRYGQ it is 0.151 ± 0.29; for SSNFSPLTIVVYNFCI it is 7.744 ± 0.051. IGLKKGHYNLILHYYFVWKV returned an amyloid nucleation score of 0.505 ± 0.51. The figure for RSGMFMGDWYSAAWKGKTSS is 0.137 ± 0.31; for LSRILLRKNC it is 0.224 ± 0.61. The figure for ATSLSCKSKFPMTDVAHLHH is 0.406 ± 0.2; for LSFIKRMTMNMLTKLD it is 1.68 ± 0.13; for CTTNIPAKLHLNSVVRVVRA it is -1.27 ± 2.7. Consider FCWLSMRAIRISSS, for which the amyloid nucleation score was found to be 0.531 ± 0.44.

As to NVDKHVWFGGVIVVNLWHIR, the amyloid nucleation score came to 6.827 ± 0.054.

Substance IGMWSHWR showed an amyloid nucleation score of 0.137 ± 0.39. The figure for SVQDFPDTSNNLASYVPSSW is -0.292 ± 0.74; for TQMNR it is -0.89 ± 0.51.
